# In US20110135657A1 (published 2011):
# Residue numbers refer to the chain shown, from its start.
# B1: 12E4 (antibody, human IgG2, kappa, V domains shown)
# VH: EVQLLESGGGLVQPGGSLRLSCAASRFTFSTYAMSWVRQAPGKGLEWVSGISGSGVSTYYADSVKGRFTISRDNSKNTLYLQMNSLRAEDTAVYYCAKSLIVVIVYALDYWGQGTLVTVSS
# VL: EIVLTQSPGTLSLSPGERATLSCRASQNFDSNYLAWYQQKPGQAPRLLIYGASSRATGIPDNFSGSGSGTDFTLTISRLEPEDFAMYYCQQYGSSPLTFGGGTKVEIKR
# notes: fully human monoclonal antibody; full chains H8/L7; also called 12E4.1
# B2: 26H11 (antibody, human IgG2, kappa, V domains shown)
# VH: B1 VH with S17Y, R26G, G50A, Y59N, I104M, A107V
# VL: B1 VL with N28S, F29V, D30S, S31G, N62R, T103S
# notes: fully human monoclonal antibody; full chains H7/L6; also called 26H11.1
# B3: 20D4 (antibody, human IgG2, kappa, V domains shown)
# VH: QVQLVQSGAEVKKPGASVKVSCKVSGYTLTDLSMHWVRQAPGKGLEWMGGFDPEDGETIYAQKFQGRITMTEDTSTDTAYMELSSLRSEDTAVYYCASIVVVPAAIQSYYYYYGMGVWGQGTTVTVSS
# VL: DIQLTQSPSSLSASIGDRVTITCRASQDIRYDLGWYQQKPGKAPKRLIYAASSLQSGVPSRFSGSGSGTEFTLTVSSLQPEDFATYYCLQHNSYPLTFGGGTKVEIER
# notes: fully human monoclonal antibody; full chains H12/L12; also called 20D4.1
# B4: 17D8 (antibody, human IgG2, kappa, V domains shown)
# VH: B1 VH with S17Y, R26G, G50A, I104M, A107V
# VL: B1 VL with N28S, F29V, D30S, S31G, N62R, M86V, S95A
# B5: 18B11.1 (antibody, human IgG2, kappa, V domains shown)
# VH: EVQLVESGGGLVKPGGSLRLSCAASGFTFSDAWMSWVRQAPGKGLEWVGRIKSKTDGGTTDYAAPVKGRFTISRDDSKNTLYLQMNSLKTEDTAVYFCTSTYSSGWYVWDYYGMDVWGQGTTVTVSS
# VL: DIVMTQSPLSLPVTPGEPASISCRSSQSLLYYNGFTYLDWFLQKPGQSPHLLIYLGSNRASGVPDRFSGSVSGTDFTLKISRVEAEDVGVYYCMQSLQTPFTFGPGTKVDIKR
# notes: fully human monoclonal antibody; full chains H11/L10
# Target: human FGF21 receptor (FGF21R): full length human FGFR1c and full length human β-Klotho co-expressed at the … (human, UniProt P11362 22-822; Q86Z14 53-1044)
# Experiment: cell-based or functional assay
row,"Activity (%) = % of FGF21 activity, luciferase reporter, AM-1/D FGFR1c+β-Klotho Luc clone; antibody combined with isotype IgG2k control",Binder
1,25.4 % of FGF21 activity,B1
2,17.9 % of FGF21 activity,B2
3,12.5 % of FGF21 activity,B3

# Target: T1, soluble human FGFR1c/β-Klotho ECD-Fc complex (human)
# T1 construct: Both entries start at residue 1 of the precursors; also called soluble FGF21R; soluble FGF21R-Fc
# T1 sequence (chain, as listed by the source limits assumed, chain 1 of 2): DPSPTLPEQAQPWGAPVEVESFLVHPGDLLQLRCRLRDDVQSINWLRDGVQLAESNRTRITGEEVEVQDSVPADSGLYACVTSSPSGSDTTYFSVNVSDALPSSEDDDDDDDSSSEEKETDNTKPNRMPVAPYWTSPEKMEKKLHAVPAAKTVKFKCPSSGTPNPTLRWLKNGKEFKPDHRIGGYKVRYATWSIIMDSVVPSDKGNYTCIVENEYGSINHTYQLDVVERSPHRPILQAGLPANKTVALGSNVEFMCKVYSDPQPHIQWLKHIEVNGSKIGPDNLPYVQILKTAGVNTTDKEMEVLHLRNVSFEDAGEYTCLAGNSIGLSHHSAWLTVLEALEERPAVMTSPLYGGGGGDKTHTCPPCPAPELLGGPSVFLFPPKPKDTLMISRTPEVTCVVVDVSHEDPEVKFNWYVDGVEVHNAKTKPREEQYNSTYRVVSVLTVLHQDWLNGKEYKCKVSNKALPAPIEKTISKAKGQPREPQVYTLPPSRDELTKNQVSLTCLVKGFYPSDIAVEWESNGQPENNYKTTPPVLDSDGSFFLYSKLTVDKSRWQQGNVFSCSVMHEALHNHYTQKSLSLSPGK
# T1 sequence (chain, as listed by the source limits assumed, chain 2 of 2): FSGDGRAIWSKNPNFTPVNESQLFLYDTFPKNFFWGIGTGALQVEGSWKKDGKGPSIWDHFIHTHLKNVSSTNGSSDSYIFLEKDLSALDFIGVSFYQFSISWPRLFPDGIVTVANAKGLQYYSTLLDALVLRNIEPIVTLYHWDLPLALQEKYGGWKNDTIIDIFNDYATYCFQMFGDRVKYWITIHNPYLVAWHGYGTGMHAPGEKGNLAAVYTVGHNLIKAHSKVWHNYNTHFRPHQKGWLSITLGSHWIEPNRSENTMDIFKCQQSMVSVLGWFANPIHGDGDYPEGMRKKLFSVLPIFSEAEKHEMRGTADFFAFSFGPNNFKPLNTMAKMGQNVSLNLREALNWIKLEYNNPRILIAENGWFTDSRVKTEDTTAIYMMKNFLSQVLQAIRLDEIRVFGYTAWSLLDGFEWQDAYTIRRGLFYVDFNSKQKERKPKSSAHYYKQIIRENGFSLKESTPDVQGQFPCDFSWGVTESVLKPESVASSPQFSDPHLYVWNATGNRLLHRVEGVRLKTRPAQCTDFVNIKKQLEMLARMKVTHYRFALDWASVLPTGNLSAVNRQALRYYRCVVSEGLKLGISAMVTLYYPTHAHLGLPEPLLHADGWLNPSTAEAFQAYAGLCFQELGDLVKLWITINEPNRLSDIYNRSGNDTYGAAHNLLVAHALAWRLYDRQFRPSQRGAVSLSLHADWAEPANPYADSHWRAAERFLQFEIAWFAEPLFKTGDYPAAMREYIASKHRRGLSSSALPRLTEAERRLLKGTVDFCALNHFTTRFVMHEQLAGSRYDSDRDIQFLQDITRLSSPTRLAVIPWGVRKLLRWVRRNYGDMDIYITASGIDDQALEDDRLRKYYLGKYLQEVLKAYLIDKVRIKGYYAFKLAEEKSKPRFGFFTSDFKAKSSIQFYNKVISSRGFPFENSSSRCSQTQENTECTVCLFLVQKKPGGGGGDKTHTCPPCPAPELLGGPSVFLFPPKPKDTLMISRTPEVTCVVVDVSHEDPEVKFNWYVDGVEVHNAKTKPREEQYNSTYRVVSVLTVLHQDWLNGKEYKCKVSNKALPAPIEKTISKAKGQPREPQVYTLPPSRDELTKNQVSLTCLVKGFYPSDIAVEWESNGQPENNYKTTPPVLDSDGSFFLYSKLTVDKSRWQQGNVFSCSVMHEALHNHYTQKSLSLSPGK
# Experiment: Biacore, antibody immobilized on the sensor chip
# Source text: (§1) Soluble human FGFR1c/β-Klotho ECD-Fc complex or β-Klotho was then captured on the immobilized antibody surfaces.
row,binding result,Binder
1,binds,B4

# Target: T2, denatured human FGFR1c (lysate of CHO cells stably expressing FGF21 receptor, non-reducing SDS-PAGE, blotted) (human, UniProt P11362 22-822)
# T2 construct: DENATURED protein on a Western blot, not the native fold; also called denatured FGFR1c; denatured receptor proteins
# T2 sequence (P11362 22-822 limits assumed): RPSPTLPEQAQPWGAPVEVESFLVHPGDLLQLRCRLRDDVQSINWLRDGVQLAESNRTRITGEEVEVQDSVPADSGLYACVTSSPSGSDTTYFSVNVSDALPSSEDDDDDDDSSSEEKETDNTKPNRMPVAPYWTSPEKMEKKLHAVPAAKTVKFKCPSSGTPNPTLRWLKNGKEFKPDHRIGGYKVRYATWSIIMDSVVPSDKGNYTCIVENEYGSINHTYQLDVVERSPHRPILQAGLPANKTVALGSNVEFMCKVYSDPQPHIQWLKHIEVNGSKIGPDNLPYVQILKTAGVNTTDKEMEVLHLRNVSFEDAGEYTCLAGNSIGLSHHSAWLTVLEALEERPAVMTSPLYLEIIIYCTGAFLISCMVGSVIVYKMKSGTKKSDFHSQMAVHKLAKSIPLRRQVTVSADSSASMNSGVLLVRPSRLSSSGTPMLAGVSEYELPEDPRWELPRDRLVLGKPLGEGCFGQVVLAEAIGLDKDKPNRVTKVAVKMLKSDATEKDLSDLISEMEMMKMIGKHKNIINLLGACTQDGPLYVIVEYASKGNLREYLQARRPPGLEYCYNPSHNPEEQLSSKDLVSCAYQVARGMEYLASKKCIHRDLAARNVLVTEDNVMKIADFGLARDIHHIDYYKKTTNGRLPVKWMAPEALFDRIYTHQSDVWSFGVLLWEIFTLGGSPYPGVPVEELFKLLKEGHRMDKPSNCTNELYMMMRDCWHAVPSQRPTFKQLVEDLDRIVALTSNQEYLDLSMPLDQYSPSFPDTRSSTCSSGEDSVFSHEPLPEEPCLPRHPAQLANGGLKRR
# Experiment: Western blot of CHO/FGF21 receptor lysate, non-reducing SDS-PAGE (denatured protein)
# Description: 20 μl of cell lysate was loaded per lane on adjacent lanes separated with a molecular weight marker lane on 4-20% SDS-PAGE gels. Following electrophoresis, the gels were blotted onto 0.2μ nitrocellulose filters. The blots were treated with Tris-buffered saline/Triton-X (TBST) plus 5% non-fat milk (blocking buffer) for 30 minutes. The blots were then cut along the molecular weight marker lanes. […] Blots were incubated with the antibodies for one hour at room temperature, followed by three washes with TBST+1% milk. The blots were then probed with anti-human or anti-goat IgG-HRP secondary antibodies for 20 min. Blots were given three 15 min. washes with TBST followed by treatment with Pierce Supersignal West Dura developing reagent (1 min.) and exposure to Kodak Biomax X-ray film.
row,binding result,Binder
1,no binding,B5
2,no binding,B1
3,no binding,B2
4,no binding,B3

# Target: T3, soluble human β-Klotho (Biacore, Example 8) (human, UniProt Q86Z14 53-996, limits assumed)
# T3 construct: also called soluble β-Klotho
# Experiment: Biacore competition binning; test antibody injected over soluble receptor captured on immobilized 24H11, 17D8 or 1A2.1
# Source text: as §1
row,binding result,Binder
1,binds,B1
2,binds,B4
3,binds,B2
4,binds,B3
